# Changes are numbered by the printed parent chain. Names may count otherwise.
# T1: Rab10_(1-175_T73E) (phosphomimetic Rab10) (human, UniProt P61026 1-175, T73E)
# T1 construct: Rab10 G-domain, human, residues 1-175, phosphomimetic switch II mutant; also called Rab10_(T73E); 10_(T73E)
# T1 sequence (looked up): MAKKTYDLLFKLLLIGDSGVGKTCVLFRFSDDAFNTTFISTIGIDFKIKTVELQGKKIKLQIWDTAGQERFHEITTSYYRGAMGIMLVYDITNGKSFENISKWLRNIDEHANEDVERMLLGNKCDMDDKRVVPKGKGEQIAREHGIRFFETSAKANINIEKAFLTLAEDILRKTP
# T2: Rab10_(1-175) (human Rab10 G-domain) (human, UniProt P61026 1-175)
# T2 construct: Rab10 G-domain, human, residues 1-175
# T2 sequence (looked up): T1 sequence (looked up) with E73T
# T3: Rab8a_(1-176_T72E) (phosphomimetic Rab8a) (human, UniProt P61006 1-176, T72E)
# T3 construct: Rab8a G-domain, human, residues 1-176, phosphomimetic switch II mutant; also called Rab8a_(T72E)
# T3 sequence (looked up): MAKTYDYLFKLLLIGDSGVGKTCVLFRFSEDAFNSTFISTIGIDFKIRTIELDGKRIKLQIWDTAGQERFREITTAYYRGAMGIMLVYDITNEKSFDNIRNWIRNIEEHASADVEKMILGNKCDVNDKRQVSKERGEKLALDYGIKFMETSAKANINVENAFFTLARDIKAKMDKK
# B1: EHBP1 CH (calponin homology) domain (domain or fragment, human)
# chain: GRKPNASQSLLVWCKEVTKNYRGVKITNFTTSWRNGLSFCAILHHFRPDLIDYKSLNPQDIKENNKKAYDGFASIGISRLLEPSDMVLLAIPDKLTVMTYLYQIRAHFSGQ
# notes: EHBP1 central CH domain, human; also called CH domain; CH^EHBP1
# B2: Cy3 labeled EHBP1 CH domain (domain or fragment, human)
# chain: B1 chain
# modifications: Cy3 on the N-terminus
# notes: EHBP1 central CH domain, human; also called Cy3-CH; source: E. coli BL21 DE3-RIL, purified; labelled with Cy3-thioester
# B3: EHBP1 bMERB_(H1-2) (bMERB domain lacking the C-terminal helix) (domain or fragment)
# chain: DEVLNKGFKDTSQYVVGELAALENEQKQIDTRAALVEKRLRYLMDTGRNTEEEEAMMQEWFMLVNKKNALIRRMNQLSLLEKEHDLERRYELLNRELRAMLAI
# B4: EHBP1 CH domain D532A (domain or fragment, human)
# chain: B1 chain with D93A
# notes: EHBP1 CH domain, human; numbers on isoform 1 (Q8NDI1-1); source: E. coli BL21 DE3-RIL, purified
# B5: Rab8a_(1-176) (human Rab8a G-domain) (domain or fragment, UniProt P61006 1-176, looked up)
# chain: T3 sequence (looked up) with E72T
# notes: Rab8a G-domain, human, residues 1-176; in the stopped-flow assays to the fluorescent mantGppNHp (non-covalent); also called GppNHp Rab8a_(1-176); Rab8a_(GppNHp); source: preparatively loaded with GppNHp or mantGppNHp
# B6: EHBP1 full-length bMERB domain M1116A (domain or fragment)
# chain: not shown
# notes: EHBP1 full-length bMERB domain, human, residues 1060-1212 as the wild-type construct; numbers on isoform 1 (Q8NDI1-1); also called bMERB_(M1116A); source: E. coli BL21 DE3-RIL, purified
# B7: EHBP1 bMERB domain lacking the N-terminal helix (helices 2-3) (domain or fragment)
# chain: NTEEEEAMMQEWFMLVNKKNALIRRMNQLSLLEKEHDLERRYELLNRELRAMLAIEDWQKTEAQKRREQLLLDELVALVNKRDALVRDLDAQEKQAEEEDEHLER
# B8: EHBP1 full-length bMERB domain F1120A (domain or fragment)
# chain: not shown
# notes: EHBP1 full-length bMERB domain, human, residues 1060-1212 as the wild-type construct; numbers on isoform 1 (Q8NDI1-1); also called bMERB_(F1120A); source: E. coli BL21 DE3-RIL, purified
# B9: EHBP1 bMERB domain Q1176A (domain or fragment)
# chain: not shown
# notes: EHBP1 bMERB domain, human, residues 1060-1212 as the wild-type construct; numbers on isoform 1 (Q8NDI1-1); source: E. coli BL21 DE3-RIL, purified
# B10: EHBP1 bMERB domain (bMERB_(1060-1212), full-length bMERB domain) (domain or fragment)
# chain: not shown
# notes: EHBP1 bMERB domain, human, residues 1060-1212, all three predicted helices; PDB 6ZSI and 6ZSJ hold the M1116A and F1120A mutants of the full-length bMERB domain; also called bMERB^EHBP1; full-length construct
# Experiments:
# Settings in all cases: both partners purified
# [1] = target: B10; experiment: ITC; 600–800 µM CH domain titrated into 40–60 µM bMERB domain; 20 mM Hepes 7.5, 150 mM NaCl, 1 mM TCEP; 25 °C; one-site-binding model
# [2] = target: F-actin (rabbit skeletal muscle actin, polymerized) (rabbit, UniProt P68135 1-377); experiment: co-sedimentation; 10 µM F-actin with 0–60 µM EHBP1 CH domain, 1 h RT; 5 mM Tris-HCl pH 7.5, 0.18 mM CaCl2, 15 mM KCl, 1 mM DTT, 1.8 mM NaN3; 100,000 g 1 h 4 °C; densitometry of SDS-PAGE
# [3] = target: B10; experiment: stopped-flow fluorescence kinetics; association: 0.5 µM Cy3 labeled CH domain with 2–16 µM full-length bMERB domain; koff from the y-axis intercept; CH buffer, 25 °C
# [4] = target: B10; experiment: stopped-flow fluorescence kinetics; dissociation: complex of Cy3 labeled CH with full-length bMERB domain (2 µM) mixed with a 20-fold excess of unlabeled CH domain; CH buffer
# [5] = target: B1; experiment: ITC; 600–800 µM CH domain titrated into 40–60 µM bMERB domain; 20 mM Hepes 7.5, 150 mM NaCl, 1 mM TCEP; 25 °C; one-site-binding model
# [6] = target: T4, EHBP1 bMERB domain N1187A (human, UniProt Q8NDI1-1 1060-1212, N1187A); experiment: ITC; 500 µM GppNHp Rab titrated into 50 µM bMERB domain; 20 mM Hepes 7.5, 50 mM NaCl, 1 mM MgCl2, 1 mM TCEP; 25 °C; one-site-binding model
# T4 construct: EHBP1 bMERB domain, human, residues 1060-1212 as the wild-type construct; numbers on isoform 1 (Q8NDI1-1); source: E. coli BL21 DE3-RIL, purified
# T4 sequence (Q8NDI1 1060-1212 N1187A): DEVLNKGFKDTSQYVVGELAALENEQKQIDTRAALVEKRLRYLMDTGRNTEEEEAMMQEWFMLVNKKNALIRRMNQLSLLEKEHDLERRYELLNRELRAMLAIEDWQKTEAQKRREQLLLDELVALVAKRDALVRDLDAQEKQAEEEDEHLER
# [7] = target: T5, EHBP1 bMERB domain L1182S (human, UniProt Q8NDI1-1 1060-1212, L1182S); experiment: as above
# T5 construct: EHBP1 bMERB domain, human, residues 1060-1212 as the wild-type construct; numbers on isoform 1 (Q8NDI1-1); source: E. coli BL21 DE3-RIL, purified
# T5 sequence (Q8NDI1 1060-1212 L1182S): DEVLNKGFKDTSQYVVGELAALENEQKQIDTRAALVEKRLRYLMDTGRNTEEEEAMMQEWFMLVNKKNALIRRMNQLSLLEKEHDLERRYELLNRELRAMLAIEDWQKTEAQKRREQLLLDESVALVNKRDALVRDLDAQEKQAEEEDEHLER
# [8] = target: T6, EHBP1 bMERB domain R1189A (human, UniProt Q8NDI1-1 1060-1212, R1189A); experiment: as above
# T6 construct: EHBP1 bMERB domain, human, residues 1060-1212 as the wild-type construct; numbers on isoform 1 (Q8NDI1-1); source: E. coli BL21 DE3-RIL, purified
# T6 sequence (Q8NDI1 1060-1212 R1189A): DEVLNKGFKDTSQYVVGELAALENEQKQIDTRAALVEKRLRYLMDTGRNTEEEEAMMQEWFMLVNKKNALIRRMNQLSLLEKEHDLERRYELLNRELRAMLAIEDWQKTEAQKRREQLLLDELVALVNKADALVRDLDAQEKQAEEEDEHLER
# [9] = target: T7, EHBP1 bMERB domain V1186A (human, UniProt Q8NDI1-1 1060-1212, V1186A); experiment: as above
# T7 construct: EHBP1 bMERB domain, human, residues 1060-1212 as the wild-type construct; numbers on isoform 1 (Q8NDI1-1); source: E. coli BL21 DE3-RIL, purified
# T7 sequence (Q8NDI1 1060-1212 V1186A): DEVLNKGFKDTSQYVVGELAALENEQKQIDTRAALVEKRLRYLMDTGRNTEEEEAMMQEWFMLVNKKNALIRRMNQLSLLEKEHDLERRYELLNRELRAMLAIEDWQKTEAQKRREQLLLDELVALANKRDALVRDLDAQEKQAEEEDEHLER
# [10] = target: T8, EHBP1 bMERB domain L1179S (human, UniProt Q8NDI1-1 1060-1212, L1179S); experiment: as above
# T8 construct: EHBP1 bMERB domain, human, residues 1060-1212 as the wild-type construct; numbers on isoform 1 (Q8NDI1-1); source: E. coli BL21 DE3-RIL, purified
# T8 sequence (Q8NDI1 1060-1212 L1179S): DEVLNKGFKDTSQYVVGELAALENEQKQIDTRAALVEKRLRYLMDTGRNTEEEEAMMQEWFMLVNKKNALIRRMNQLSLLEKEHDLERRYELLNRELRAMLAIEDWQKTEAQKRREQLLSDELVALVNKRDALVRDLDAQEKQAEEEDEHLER
# [11] = target: T9, EHBP1 bMERB domain L1156S (human, UniProt Q8NDI1-1 1060-1212, L1156S); experiment: as above
# T9 construct: EHBP1 bMERB domain, human, residues 1060-1212 as the wild-type construct; numbers on isoform 1 (Q8NDI1-1); source: E. coli BL21 DE3-RIL, purified
# T9 sequence (Q8NDI1 1060-1212 L1156S): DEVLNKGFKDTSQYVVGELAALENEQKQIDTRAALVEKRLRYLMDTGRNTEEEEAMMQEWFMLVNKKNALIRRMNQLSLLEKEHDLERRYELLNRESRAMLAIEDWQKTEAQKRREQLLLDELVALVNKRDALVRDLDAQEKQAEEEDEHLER
# [12] = target: B5; experiment: crystal structure; sitting-drop vapor diffusion, 20 °C; 300–400 µM 1:1 complexes
# [13] = target: B5; experiment: ITC; 500 µM GppNHp Rab titrated into 50 µM bMERB domain; 20 mM Hepes 7.5, 50 mM NaCl, 1 mM MgCl2, 1 mM TCEP; 25 °C; one-site-binding model
# [14] = target: T1, Rab10_(1-175_T73E) (phosphomimetic …); experiment: SEC; analytical SEC, Superdex 75 10/300 GL; 110 µM bMERB domain mixed with 121 µM GppNHp Rab (1:1.1); 20 mM Hepes 7.5, 50 mM NaCl, 1 mM MgCl2, 2 mM DTE; room temperature
# [15] = target: B5; experiment: stopped-flow fluorescence kinetics; dissociation: complex of mantGppNHp Rab8a_(1-176) with the bMERB domain (2 µM) mixed with a 20-fold excess of unlabeled GppNHp Rab8a_(1-176); 25 °C
# [16] = target: T2, Rab10_(1-175) (human Rab10 G-domain); experiment: ITC; 500 µM GppNHp Rab titrated into 50 µM bMERB domain; 20 mM Hepes 7.5, 50 mM NaCl, 1 mM MgCl2, 1 mM TCEP; 25 °C; one-site-binding model
# [17] = target: T3, Rab8a_(1-176_T72E) (phosphomimetic …); experiment: as above
# [18] = target: B5; experiment: stopped-flow fluorescence kinetics; association: 0.5 µM mantGppNHp Rab8a_(1-176) with 1.5–8 µM bMERB domain, pseudo first order; koff from the y-axis intercept; Rab buffer, 25 °C
binder,measurement,setting,value
B1,Kd,[1],1200 nM
same,stoichiometry N,[1],1
same,Kd,[2],9.34 ± 1.86 µM
B2,Kd,[3],3.75 to 4.23 µM
same,koff,[3],104 s⁻¹
same,kon,[3],2.76e+07 M⁻¹ s⁻¹
same,koff,[4],117 s⁻¹
B3,Kd,[5],780 nM
B4,fold reduction in binding affinity against the wild-type CH domain,[1],> 40 fold
B5,fold reduction in binding affinity against the wild-type bMERB domain,[6],5 fold
same,fold decrease in binding affinity against the wild-type bMERB domain,[7],10 fold
same,fold reduction in binding affinity against the wild-type bMERB domain,[8],20 fold
same,fold reduction in binding affinity against the wild-type bMERB domain,[9],> 30 fold
same,fold decrease in binding affinity against the wild-type bMERB domain,[10],10 fold
same,fold reduction in affinity against the wild-type bMERB domain,[11],47 fold
B6,binding result,[12],binds
B7,Kd,[13],300 nM
B8,binding result,[12],binds
B9,binding result,[13],binds
B10,binding result,[14],binds
same,koff,[15],13.8 s⁻¹
same,binding result,[16],binds
same,Kd,[13],310 nM
same,binding result,[17],binds
same,Kd,[18],480 nM
same,koff,[18],13.4 s⁻¹
same,kon,[18],2.79e+07 M⁻¹ s⁻¹
